Biological target: caveolin-3 (Cav3) (mouse (endogenous in cardiomyocytes)) (UniProt P51637)
Test: co-IP; endogenous proteins in extracts of mouse cardiomyocytes / heart (WT; for actin-Cav3 also SM22α KO); IgG as negative control; Western blot

UniProt P51637, sequence (P51637 whole entry): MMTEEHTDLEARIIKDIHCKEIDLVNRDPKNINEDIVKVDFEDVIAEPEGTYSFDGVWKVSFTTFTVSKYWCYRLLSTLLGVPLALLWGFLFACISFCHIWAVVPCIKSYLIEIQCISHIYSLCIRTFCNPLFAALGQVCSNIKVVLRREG

reduction of the co-precipitate in SM22α KO against WT cardiomyocytes: 34%
Substance: α-actin (from UniProt P68033 1-377) (natural protein)

From article PMC9292107
